Measured values reported in the DeepSol protein solubility set.

Assay: soluble on expression in E. coli; label from the status in PepcDB or PDB records

Row | Sequence | soluble on expression in E. coli
1 | MGSDKIHHHHHHMEEVIKLNSVDQYNKMYGLETLHPLVTVVDLSKATVFPTHFTLNYGLYALFLKQTKCGDLRYGRQMYDYQEGTVTSFAPGQVVEVKLNDGVRPMSHGILFHPDLIRGTSLGQEIKHYSFFSYASNEALHLSDDEKKIFQDCLDKVQQELSRPIDKHSKRLIARNIELLLDYCMRFYERQFVTRSKVNKDVLMKFEDLLDVYFQSEQSPNEKLPTVKYFADKVNLSSNYFGDLIKKETGKTAQEYIQGKIINIAKERILASEKTVSEIAYELGFQYPQHFTRIFKKVVGCTPTEYRVIQV | not soluble
2 | MGSDKIHHHHHHMEHIFQAHSPGEAGEILQQNWEHWLMTTARWREILTYDPRPATGCSPKEILWTKNKAQLYHYQCSSERRYRTPVLMIYALINRPYVLDLTPGSSLVEYLVNEGFDVYLLDWGEFEWEDRDITYADLVYDYIATAARKVARSAGSKEISIIGYCMGGTMSTLYAALFDRPVLKNLVYLAAPIDFNRAGTYDVWLKAPGYDPDRIADTMELVPKSFIDWGTRMLNPLANYWGTYTRLWKTLEEGKSVHFWKVLNKWSSDNINFPGGAYRDWIRDFYQGNKLIKNQVVLRGKRVQLQRIKANILAMVGLRDHIVMPHQTAAALTYLGGNDKTYMEFPVGHGGLVLGETARMRVFPEIAYWLGERSEELSEE | not soluble
3 | MGSDKIHHHHHHMEIFDYVILGAGLGGLSAAACLTRQGYRVVVLEQHYLPGGCCHTFDYGEYHFCADVHYISQCGSGQTITQFLDYIHQNVPFNSLDSDCIDRVITPEADFKIPLGWENLRSRLLSTFPEEAGAINHYCNEIQQLHQEIRNLVQEVRWYDQKLSDWLKLPKYLNLFWKRNWTLQDLYNHVGLSPKLQAVLAGQSGDYALPPQEIALLTHTSLVWDYSEGAYYPKHHFKHLVDTIADVITAGGGVIKYSTPVSHIQVSNHSVHSVLADGNSYRASKAYISDLDPKLTVELMHDITALSQKEYKRLTNYQYSASAFNIYLGLDSRFDPQRYGIGNWNVWYYPTGDLNREYQQQLEGDFSQPWIFLSCPTMKSSEPGMGPEGHHVLEIATVCSYEPFEHLYKSNPKAYKAKKREFYQQIMTSVRDLIPDVDKYARMKVYGTPTTSEFYLGQPQGNIYGAKLVPKQVGLNRLGYMTELPNLFLVGASAGYPSVPGVIGNGMQVVELLTGQSVWHKAAERPQSLVAIG | not soluble
4 | MGSDKIHHHHHHMEIKCIITDDEPIARKGLRRHIGKIDFLTIVGECEDAIQLNNMLNSVQADLLFLDIEMPDMSGLDFLESAQNAPKVIITSAYERYALRGYEFDVVDYLLKPISFSRFLKSVNKAHALMESTSKSEEPAYIFVKTEKQLKRLYLKEIQFIEGMENYIVIHTLTSKEIVHLRLKSIQETLPAQIFMQVHRSFIVNLSYVQAIEGNLLIIGEHKIPVSRPLREEVYKSIVNNQLIQR | not soluble
5 | MGSDKIHHHHHHMEIKKGTWIIKKGFAEMFKGGVIMDVTSAEQAKIAEEAGAVAVMALERVPADIRKEGGVARMASIAKIREIMEAVSIPVMAKVRIGHIAEAKILEELGVDFIDESEVLTPADDRFHINKHEFKVPFVCGARDLGEALRRIAEGAAMIRTKGEAGTGNVVEAVKHMRRVMEQIKQVTKMEDEELVAYGKEIGAPVELLREVKRLGRLPVVNFAAGGVATPADAALMMMLGADGVFVGSGIFKSKDPRKMAKAMVLAVTYWDNPRILLKISEDIGEPMRGLDVEELEVRMQERGW | not soluble
6 | MGSDKIHHHHHHMEIPPEILQSLIELGFTKYEVLTYWTLLVYGPSTAKEISIRSGIPYNRVYDTISSLKVRGFVTEIEGNPKVYAAYSPRIAFLRFKKELDEISEKLEKAISEVKREERCRPSIWRSHDFEEAIEMFKETLESSENEVIVVTPSEFFKSIRETLIGILDRGVTLSLYIDKVPDISDFEGRGNFFLRRFTKFNHLIGLADGKVVATIQNVSFMPPSPPSFKSTFKEIIFSQYSLTLEIFKESSLEVEQIMNPQDIRFFAVFHAADFVKRHLPSSTIFSEIVGRNVKTGEVEKLYGKVVGYTLSFREGVNNIQIETEKGIVKVGGMFAVIEDYESTNVRLMLES | not soluble
7 | MGSDKIHHHHHHMEITSKTYLSTILGNDLAAGFYPTPLTEGNHLIQLLQMESERAYACFDPCCGEGTILRSFADAVKQVGIQLDTYGVELDANRYNKAKEQLDVVIRSSFESMMISHDYFPLIFLNPPYNTELRTEKKKSEKMEFNFLKRAHHYLQDGGIMVYVIPYDRFARDEISYFLAKNYEEIGLMRFGDENEEFEQFKQCVFIGRKRAATKNDTYFNDRFANFCENMSELDFVREHVNTLAQMVNRKSWTIPTLRNQNKLIFTSRVDYKDAYEGVGKSEGILTLKKRLNRGNGYSLQAEKTAAERAKMPIASGQLGLLLITGVADGLLGEGDTLHAVRGSENVFFETSFEKLETTTKEVVLQKRRAKFIIATPTGEVKELV | not soluble
